Molecular target: D. radiodurans DNA gyrase holoenzyme (reconstituted from GyrA::6His and 6His::GyrB) (D. radiodurans) (UniProt Q9RT53)

B1: PprA::6His protein (natural protein)
chain: MLPLAFLICSGHNKGSMARAKAKDQTDGIYAAFDTLMSTAGVDSQIAALAASEADAGTLDAALTQSLQEAQGRWGLGLHHLRHEARLTDDGDIEILTDGRPSARVSEGFGALAQAYAPMQALDERGLSQWAALGEGYRAPGDLPLAQLKVLIEHARDFETDWSAGRGETFQRVWRKGDTLFVEVARPASAEAALSDAAWDVIASIKDRAFQRELMRRSEKDGMLGALLGARHAGAKANLAQLPEAHFTVQAFVQTLSGAAARNAEEYRAALKTAAAALEEYQGVTTRQLSEVLRHGLRES
Work on B1 yielded a decatenation of kDNA by DNA gyrase (4 nM) with increasing concentrations of PprA; ratio of minicircles released with PprA over without PprA of 7 fold.

— publication PMC4863600
